In patent US11279751B2:

T1: human PXR-GST (Invitrogen) (human) (UniProt O75469)
T1 sequence: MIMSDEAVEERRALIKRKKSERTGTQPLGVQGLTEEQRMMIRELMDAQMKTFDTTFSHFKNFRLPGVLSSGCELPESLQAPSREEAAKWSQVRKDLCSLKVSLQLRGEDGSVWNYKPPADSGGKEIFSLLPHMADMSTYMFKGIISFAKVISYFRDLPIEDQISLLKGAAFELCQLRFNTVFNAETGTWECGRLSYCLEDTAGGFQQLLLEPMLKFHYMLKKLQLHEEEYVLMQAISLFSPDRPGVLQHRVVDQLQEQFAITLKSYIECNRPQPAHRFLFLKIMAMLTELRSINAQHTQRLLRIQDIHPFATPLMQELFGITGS

B1: Adnectin-4 (designed binder)
chain: MASTSGVSDVPRDLEVVAATPTSLLISWDAPAVTVHSYYITYQELQHHSVPQGFQVPGSKSTATISGLKPGVAYQIAVYAFTGPGLPPSDAPPIVIYYRTEGSGSHHHHHH
B2: WS1 binder of SEQ ID NO: 48 (designed binder)
chain: MASTSGVSDVPRDLEVVAATPTSLLISWDAPAVPVSKYVIYYWPGALISSMQAFKVPGSKSTATISGLKPGVLYSIVVDALTGDGQGSYVWDPITITYRTEGSGS
B3: Adnectin-5 (designed binder)
chain: MGVSDVPRDLEVVAATPTSLLISWKYPYETISYYRITYGETGGNSPVQEFTVPYYRSTATISGLKPGVDYTITVYAVEASAPYSDGGSPISINYRTEIDKPSQHHHHHH
B4: Adnectin-3 (designed binder)
chain: MASTSGVSDVPRDLEVVAATPTSLLISWDAPAVPVSKYVIYYWPGALISSMQAFKVPGSKSTATISGLKPGVLYSIVVDALTGDGQGSYVWDPITITYRTEGSGSHHHHHH
B5: Adnectin-1 (designed binder)
chain: MASTSGSTHYYKGTADLEVVAATPTSLLISWPPPYYVEGVTVFRITYGETGGNSPVQEFTVPYWTETATISGLKPGVDYTITVYAEMYPGSPWAGQVMDIQPISINYRTEGSGSHHHHHH
B6: Adnectin-2 (designed binder)
chain: MASTSGVSDVPRDLEVVAATPTSLLISWDAPAVTVNNYRITYQPLLQGSSIQHFDVPGSKSTATISGLKPGVGYQITVYASTYTHSKAYYSLPISIYYRTEGSGSHHHHHH
B7: WS1 binder of SEQ ID NO: 49 (designed binder)
chain: MASTSGVSDVPRDLEVVAATPTSLLISWDAPAVTVHSYYITYQELQHHSVPQGFQVPGSKSTATISGLKPGVAYQIAVYAFTGPGLPPSDAPPIVIYYRTEGSGS
B8: Adnectin-6 (designed binder)
chain: MGVSDVPRDLEVVAATPTSLLISWSRPKGSIKYYRITYGETGGNSPVQEFTVPNSQYTATISGLKPGVDYTITVYAVYGYPYQEPHYYPISINYRTEIDKPSQHHHHHH
B9: Adnectin-7 (designed binder)
chain: MGVSDVPRDLEVVTATPTSLLISWDGPKYYVKYYRITYGETGGNSPVQEFTVPRTDHTATISGLKPGVDYTITVYAVKGQYGPYYGSRPISINYRTEIDKPSQHHHHHH
B10: Adnectin-8 (designed binder)
chain: MGVSDVPRDLEVVAATPTSLLISWSQPGRYVKYYRITYGETGGNSPVQEFTVPNDTYTATISGLKPGVDYTITVYAVYGKYGPYYGYDPISINYRTEIDKPSQHHHHHH

Columns and labels:
[1] = biological target: T1, human PXR-GST (Invitrogen) (human); assay: SPR (Biacore T100), Adnectin series over human PXR-GST captured by anti-GST antibody
[2] = biological target: T1, human PXR-GST (Invitrogen) (human); assay: Biacore, binder at 0.5-2 µM over GST-PXR captured by anti-GST antibody

Binder	Kd [1]	koff [1]	kon [1]	RU bound [2]
B1	7.8 nM	0.000168 s⁻¹	21500 M⁻¹ s⁻¹	–
B2	–	–	–	146 RU
B3	5.4 nM	0.0027 s⁻¹	509000 M⁻¹ s⁻¹	–
B4	2.5 nM	0.000378 s⁻¹	16200 M⁻¹ s⁻¹	–
B5	11.4 nM	0.00119 s⁻¹	104000 M⁻¹ s⁻¹	–
B6	97.8 nM	0.00458 s⁻¹	162000 M⁻¹ s⁻¹	–
B7	–	–	–	81 RU
B8	1.9 nM	0.00126 s⁻¹	680000 M⁻¹ s⁻¹	–
B9	0.31 nM	8.82e-05 s⁻¹	288000 M⁻¹ s⁻¹	–
B10	4.4 nM	0.000182 s⁻¹	41700 M⁻¹ s⁻¹	–
